This is an account of results in patent US20240417485A1.

Assay [1] addresses human uPAR expressed on the cell surface (human) (UniProt Q03405). Put plainly: flow cytometry on 293T cells, isotype control (background). (A flow cytometer gives signals particle by particle.)
Assay [2] shares this target. The assay can be described thus: flow cytometry on A375 cells, isotype control (background).
The target is the same in assay [3]. The assay can be described thus: flow cytometry on 293T-uPAR cells, isotype control (background).

Chain of human uPAR expressed on the cell surface (human) (Q03405 23-305): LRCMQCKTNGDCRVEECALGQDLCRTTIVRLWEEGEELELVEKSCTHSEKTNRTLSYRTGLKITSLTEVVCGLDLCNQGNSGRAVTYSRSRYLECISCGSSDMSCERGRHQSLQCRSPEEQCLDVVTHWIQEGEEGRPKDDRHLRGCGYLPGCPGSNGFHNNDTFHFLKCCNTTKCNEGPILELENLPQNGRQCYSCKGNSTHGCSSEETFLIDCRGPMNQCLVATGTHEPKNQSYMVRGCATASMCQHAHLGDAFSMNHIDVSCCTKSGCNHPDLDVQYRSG

Consider isotype antibody, for which the MFI came to 62 in assay [1], 71.3 in assay [2] and 46.4 in assay [3].
